This passage reports stoichiometry N results from PMC8631079.

For assay [1], the target named is GH10 (1) from PUL15 of Prevotella copri DSM18205 (extracellular endo-1,4-β-xylanase) (Prevotella copri DSM 18205). The assay can be described thus: SEC; HiPrep 16/60 Sephacryl S-300 HR column, 0.5 mL/min, sodium phosphate 50 mM, NaCl 150 mM, pH 7.0; calibrated with molecular weight standards 20-700 kDa; native mass compared with the theoretical mass.
In assay [2] the target is GH43_1 from PUL15 of Prevotella copri DSM18205 (intracellular β-xylosidase / exo-β-xylanase) (Prevotella copri DSM 18205). Described as above.

The term stoichiometry N denotes a count of units in the complex or per binding partner.

With “GH10 (1) from PUL15 of Prevotella copri DSM18205 (extracellular endo-1,4-β-xylanase) (enzyme)”, the stoichiometry N in assay [1] was 2. For “GH43_1 from PUL15 of Prevotella copri DSM18205 (intracellular β-xylosidase / exo-β-xylanase) (enzyme)”, the stoichiometry N in assay [2] came to 2.
